T1: CTLA4 (Acro Biosystems), coated on plate (UniProt P16410 37-162, limits assumed)
T1 construct: Bought antigen; the construct is not described; also called target antigen
T1 sequence (looked up): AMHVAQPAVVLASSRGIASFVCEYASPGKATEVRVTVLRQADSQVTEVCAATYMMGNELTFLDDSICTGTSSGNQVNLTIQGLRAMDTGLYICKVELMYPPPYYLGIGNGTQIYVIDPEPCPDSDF


Experiments:
[1] = biological target: T2, CD40 (Acro Biosystems), coated on plate (UniProt P25942 21-193); assay: ELISA, CD40 coated at 1 µg/ml, detection with anti-human IgG-Fc-peroxidase
T2 construct: Bought antigen; the construct is not described; also called target antigen
T2 sequence (P25942 21-193 limits assumed): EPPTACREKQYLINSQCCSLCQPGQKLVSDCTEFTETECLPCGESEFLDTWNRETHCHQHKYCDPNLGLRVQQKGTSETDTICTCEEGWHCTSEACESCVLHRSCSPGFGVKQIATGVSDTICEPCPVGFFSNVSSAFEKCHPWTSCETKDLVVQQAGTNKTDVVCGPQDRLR
Protocol: (§1) The affinities of the exemplary monovalent antibodies, in the prodrug and activated forms, were measured by an ELISA assay. Briefly, target antigens, CD40 or CTLA4 (both from Acro Biosystems), were coated at 1 μg/ml in a Nunc MaxiSorp plate (ThermoFisher) for 1 hour and blocked with SuperBlock (ThermoFisher). The exemplary monovalent antibodies, whether intact or matriptase-activated, were added at concentrations ranging from 0.001 to 1000 nM, as indicated in the x-axis of each plot shown in FIG. 4, and incubated for 1 hour at room temperature. Plates were washed 3 times using PBS supplemented with 0.05% Tween-20 (PBS-T). Goat anti-human IgG-Fc-peroxidase conjugate antibody (Sigma) was used at 1:10,000 dilution in PBS-T and incubated for an additional hour. Plates were washed 3 times using PBS-T, followed by development using TMB substrate (ThermoFisher), and neutralizing with 0.1 M sulfuric acid. The resulting colorimetric assay was measured at 450 nm using SpectraMax spectrophotometer (Molecular Devices).
(§2) Differential binding of the inducible monovalent antibodies in their prodrug and active forms was determined by comparing the apparent KD of the untreated (prodrug) or the protease-treated (active) forms of the inducible monovalent antibodies to their target antigens in an ELISA assay (results shown in FIG. 4).

[2] = biological target: T1, CTLA4 (Acro Biosystems), coated on plate; assay: ELISA, CTLA4 coated at 1 µg/ml, detection with anti-human IgG-Fc-peroxidase
Protocol: as §1, §2

Binder	fold difference in apparent affinity (apparent KD), matriptase-treated against untreated prodrug [1] [fold]	fold difference in apparent affinity (apparent KD), matriptase-treated against untreated prodrug [2] [fold]
Dace-ProMonoMab, matriptase-treated (active form) (antibody, V domains shown, Same chains as the prodrug, treated overnight with 40 nM recombinant human matriptase; also called protease-treated) VH: EVQLVESGGGLVQPGGSLRLSCAASGYSFTGYYIHWVRQAPGKGLEWVARVIPNAGGTSYNQKFKGRFTLSVDNSKNTAYLQMNSLRAEDTAVYYCAREGIYWWGQGTLVTVSS VL: DIQMTQSPSSLSASVGDRVTITCRSSQSLVHSNGNTFLHWYQQKPGKAPKLLIYTVSNRFSGVPSRFSGSGSGTDFTLTISSLQPEDFATYFCSQTTHVPWTFGQGTKVEIKG	5.1	–
Treme-ProMonoMab, matriptase-treated (active form) (antibody, V domains shown, Same chains as the prodrug, treated overnight with 40 nM recombinant human matriptase; also called protease-treated) VH: QVQLVESGGGVVQPGRSLRLSCAASGFTFSSYGMHWVRQAPGKGLEWVAVIWYDGSNKYYADSVKGRFTISRDNSKNTLYLQMNSLRAEDTAVYYCARDPRGATLYYYYYGMDVWGQGTTVTVSS VL: DIQMTQSPSSLSASVGDRVTITCRASQSINSYLDWYQQKPGKAPKLLIYAASSLQSGVPSRFSGSGSGTDFTLTISSLQPEDFATYYCQQYYSTPFTFGPGTKVEIKG	–	5.3
Seli-ProMonoMab, matriptase-treated (active form) (antibody, V domains shown, Same chains as the prodrug, treated overnight with 40 nM recombinant human matriptase) VH: not shown VL: DIQMTQSPSSVSASVGDRVTITCRASQGIYSWLAWYQQKPGKAPNLLIYTASTLQSGVPSRFSGSGSGTDFTLTISSLQPEDFATYYCQQANIFPLTFGGGTKVEIKG	2	–

Source: patent US20200148771A1 (HARPOON THERAPEUTICS, published 2020)
